Experimental data reported in the supplement of paper PMC10567573.

Test: protein stability index of a GFP-peptide fusion (GPS, HEK-293T) (PSI 1-6); higher = more stable
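Note: lentivirally expressed fusions sorted by FACS into six bins by GFP to DsRed ratio, PSI derived from sequencing read proportions per bin multiplied by bin number.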

Protein: IAQYALLGYFIRSWRTLAILVNLQ [SLC22A15 WT]
- protein stability index (parent: IOH10897_34, c terminus: a fixed tail appended): 2.63

Protein: TLARCAKDILGFAVMFFIVFFAYA
- protein stability index (parent: IOH11095_79, c terminus: a fixed tail appended): 2.95

Protein: LIVVTQSHLVIHNLFEGMIWFIVP
- protein stability index (parent: IOH10978_35, c terminus: a fixed tail appended): 2.99

Protein: YSGAYGASVSDEELKRRVAEELAL [CHCHD3 WT]
- protein stability index (parent: IOH11162_9, c terminus: a fixed tail appended): 2.57

Protein: FVESSGGGSSAVGQFVSLDGAGKT
- protein stability index (parent: IOH11305_8, c terminus: a fixed tail appended): 2.44

Protein: PTPAKRRSSALWSEMLDITMKESL
- protein stability index (parent: IOH11256_16, c terminus: a fixed tail appended): 2.21

Protein: IKRTIRVLDVNNQSFREQEEPSNK
- protein stability index (parent: IOH11256_3, c terminus: a fixed tail appended): 3.53

Protein: YARYHQAFADRDQSERQRHESQQL
- protein stability index (parent: IOH11065_9, c terminus: a fixed tail appended): 2.09

Protein: IHSIALSTFASLIGPFGGFFASGF
- protein stability index (parent: IOH10978_57, c terminus: a fixed tail appended): 3.13

Protein: FAPQTGARPSETFARFCKSQESAL [C19orf51 WT]
- protein stability index (parent: IOH10770_74, c terminus: a fixed tail appended): 2.22

Protein: RGVRRTASTPTPDDKLFQKLAKVY [CPN1 WT]
- protein stability index (parent: IOH11355_40, c terminus: a fixed tail appended): 1.95

Protein: FSDSSMDHFQKFLPTVGGQLGTAG [MYOZ1 WT]
- protein stability index (parent: IOH11059_14, c terminus: a fixed tail appended): 2.43

Protein: QLDWDELETNQQHFHALCHSLLVS [C2orf65 WT]
- protein stability index (parent: IOH10869_57, c terminus: a fixed tail appended): 2.16

Protein: HYPFLGAMGDHSKKKPGTAMCVGC [ISL2 WT]
- protein stability index (parent: IOH10979_2, c terminus: a fixed tail appended): 2.74

Protein: SGPEAARAGGWVSGEEFYMLTRRV
- protein stability index (parent: IOH11095_116, c terminus: a fixed tail appended): 2.25

Protein: YSGGGYYLDLPGSRQGSAEALRAL
- protein stability index (parent: IOH11095_45, c terminus: a fixed tail appended): 1.95

Protein: CTACGSVLEDNIIVSEVQFVESSG
- protein stability index (parent: IOH11305_5, c terminus: a fixed tail appended): 3.03

Protein: VFIFYYVVEEILELHIHRLRYLSS
- protein stability index (parent: IOH11095_61, c terminus: a fixed tail appended): 2.92

Protein: RVRPLARVTSLANLISPVRNGAVR
- protein stability index (parent: IOH11256_7, c terminus: a fixed tail appended): 3.05

Protein: LREKLLEAEQSLRNLEDIHMSLEK
- protein stability index (parent: IOH11065_64, c terminus: a fixed tail appended): 2.56

Protein: YSPRRSRGSPRYSPRHSRSRSRT
- protein stability index (parent: IOH11039_42, c terminus: native): 3.93

Protein: LYKEELEQTYHAKLENARLSSEMN [LMNB1 WT]
- protein stability index (parent: IOH11078_44, c terminus: a fixed tail appended): 2.79

Protein: YLDPSVLSGVSCFVMFLCLADYLV [ARL6IP1 WT]
- protein stability index (parent: IOH11244_11, c terminus: a fixed tail appended): 2.87

Protein: RDIDLKNRRGGPPFAFVEFEDPRD
- protein stability index (parent: IOH11039_8, c terminus: a fixed tail appended): 3.81

Protein: TKHKCRQLTKASLKPRGCSKPPWR
- protein stability index (parent: IOH11209_33, c terminus: a fixed tail appended): 2.75

Protein: LTKASLKPRGCSKPPWRPPGGKL
- protein stability index (parent: IOH11209_36, c terminus: native): 2.04

Protein: SEVEELNMSLTALREKLLEAEQSL
- protein stability index (parent: IOH11065_62, c terminus: a fixed tail appended): 2.99
